Experimental data reported in the supplement of paper PMC9112550, “Optimization of the antimicrobial peptide Bac7 by deep mutational scanning” (BMC Biology, 2022).

System: Escherichia coli TOP10
Experiment: shrunken log2 fold change of peptide-encoding DNA abundance (4.5 h post-induction vs induction); higher = less antimicrobial activity (less host growth inhibition)
Details: time post-induction: 4.5 h; library: site-saturation at positions 5, 18, 19, 20
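Further: peptides expressed intracellularly from a pBAD plasmid library in pooled LB shake-flask culture, induced with 0.3% L-arabinose, DNA abundance read by NGS, three biological replicates, DESeq2 with apeglm shrinkage.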

Row | Sequence | shrunken log2 fold change
1 | RRIRQRPPRLPRPRPRPQNTPRP | -0.666
2 | RRIRHRPPRLPRPRPRPCISPRP | -0.13
3 | RRIRLRPPRLPRPRPRPKEGPRP | -0.0145
4 | RRIRVRPPRLPRPRPRPGCYPRP | -0.112
5 | RRIRWRPPRLPRPRPRPFPMPRP | -0.111
6 | RRIRERPPRLPRPRPRPLVQPRP | 0.0736
7 | RRIRVRPPRLPRPRPRPHRDPRP | -0.198
8 | RRIRARPPRLPRPRPRPVLGPRP | 0.419
9 | RRIRYRPPRLPRPRPRPKNPPRP | -0.315
10 | RRIRMRPPRLPRPRPRPLNFPRP | -0.00433
11 | RRIRWRPPRLPRPRPRPVFPPRP | 0.268
12 | RRIRLRPPRLPRPRPRPTTWPRP | 0.0965
13 | RRIRVRPPRLPRPRPRPQLRPRP | 0.0648
14 | RRIRDRPPRLPRPRPRPSHCPRP | -0.29
15 | RRIRGRPPRLPRPRPRPYVIPRP | -0.0899
16 | RRIRERPPRLPRPRPRPRKQPRP | 0.00709
17 | RRIRRRPPRLPRPRPRPWVSPRP | -0.0738
18 | RRIRPRPPRLPRPRPRPWNMPRP | -0.189
19 | RRIRMRPPRLPRPRPRPHYQPRP | -0.228
20 | RRIRARPPRLPRPRPRPVEFPRP | 0.108
21 | RRIRRRPPRLPRPRPRPVKFPRP | 0.0517
22 | RRIRHRPPRLPRPRPRPFFNPRP | -0.632
23 | RRIRWRPPRLPRPRPRPPIVPRP | 0.19
24 | RRIRWRPPRLPRPRPRPDTHPRP | 0.219
25 | RRIRARPPRLPRPRPRPERCPRP | 1.09

Row | Sequence | shrunken log2 fold change
26 | RRIRKRPPRLPRPRPRPCRPPRP | 0.0439
27 | RRIRIRPPRLPRPRPRPFQNPRP | -0.296
28 | RRIRKRPPRLPRPRPRPHAIPRP | -0.142
29 | RRIRSRPPRLPRPRPRPHYHPRP | -0.696
30 | RRIRDRPPRLPRPRPRPSAPPRP | 0.0189
31 | RRIRRRPPRLPRPRPRPYFYPRP | -0.683
32 | RRIRHRPPRLPRPRPRPVTMPRP | -0.513
33 | RRIRHRPPRLPRPRPRPTNRPRP | -0.162
34 | RRIRERPPRLPRPRPRPWDFPRP | 0.0275
35 | RRIRDRPPRLPRPRPRPDMTPRP | 0.242
36 | RRIRVRPPRLPRPRPRPDSLPRP | -0.416
37 | RRIRRRPPRLPRPRPRPFMFPRP | 0.234
38 | RRIRCRPPRLPRPRPRPKMGPRP | 0.0549
39 | RRIRNRPPRLPRPRPRPEYDPRP | -0.0369
40 | RRIRDRPPRLPRPRPRPHLVPRP | -0.0562
41 | RRIRARPPRLPRPRPRPHESPRP | 0.779
42 | RRIRHRPPRLPRPRPRPFDGPRP | -0.258
43 | RRIRWRPPRLPRPRPRPWITPRP | -0.0174
44 | RRIRHRPPRLPRPRPRPTILPRP | -0.194
45 | RRIRKRPPRLPRPRPRPGLPPRP | 0.348
46 | RRIRMRPPRLPRPRPRPCFCPRP | 0.0295
47 | RRIRMRPPRLPRPRPRPEHSPRP | 0.234
48 | RRIRERPPRLPRPRPRPARLPRP | 0.361
49 | RRIRLRPPRLPRPRPRPYEIPRP | -0.012
50 | RRIRNRPPRLPRPRPRPYESPRP | -0.829

Row | Sequence | shrunken log2 fold change
51 | RRIRVRPPRLPRPRPRPAVFPRP | 0.265
52 | RRIRHRPPRLPRPRPRPMHTPRP | 0.0398
53 | RRIRIRPPRLPRPRPRPHQYPRP | -1.31
54 | RRIRDRPPRLPRPRPRPPRAPRP | 1.1
55 | RRIRIRPPRLPRPRPRPHGSPRP | -0.261
56 | RRIRWRPPRLPRPRPRPNLQPRP | 0.0402
57 | RRIRNRPPRLPRPRPRPRDEPRP | -0.0923
58 | RRIRFRPPRLPRPRPRPFCNPRP | -0.196
59 | RRIRCRPPRLPRPRPRPDNAPRP | -0.164
60 | RRIRDRPPRLPRPRPRPEEKPRP | 0.766
61 | RRIRQRPPRLPRPRPRPCTTPRP | -0.104
62 | RRIRVRPPRLPRPRPRPWESPRP | 0.0528
63 | RRIRPRPPRLPRPRPRPNMKPRP | -0.52
64 | RRIRTRPPRLPRPRPRPEFIPRP | 0.0102
65 | RRIRNRPPRLPRPRPRPIHQPRP | -0.189
66 | RRIRTRPPRLPRPRPRPRWCPRP | 0.109
67 | RRIRMRPPRLPRPRPRPHFKPRP | -0.0841
68 | RRIRARPPRLPRPRPRPQDWPRP | 0.556
69 | RRIRHRPPRLPRPRPRPFDHPRP | -0.0277
70 | RRIRPRPPRLPRPRPRPKFCPRP | 0.189
71 | RRIRKRPPRLPRPRPRPYTSPRP | -0.05
72 | RRIRVRPPRLPRPRPRPCSPPRP | -0.137
73 | RRIRCRPPRLPRPRPRPPCVPRP | 0.0597
74 | RRIRMRPPRLPRPRPRPDWSPRP | -0.0229
75 | RRIRSRPPRLPRPRPRPGDVPRP | 0.204

Row | Sequence | shrunken log2 fold change
76 | RRIRDRPPRLPRPRPRPDMVPRP | 0.00109
77 | RRIRWRPPRLPRPRPRPRDWPRP | 0.958
78 | RRIRPRPPRLPRPRPRPNAQPRP | 0.0626
79 | RRIRRRPPRLPRPRPRPQIYPRP | -0.1
80 | RRIRKRPPRLPRPRPRPPYIPRP | -0.69
81 | RRIRERPPRLPRPRPRPSDMPRP | -0.0552
82 | RRIRDRPPRLPRPRPRPFKHPRP | -0.264
83 | RRIRRRPPRLPRPRPRPPRMPRP | 0.94
84 | RRIRCRPPRLPRPRPRPKAGPRP | 0.251
85 | RRIRNRPPRLPRPRPRPWNTPRP | 0.0705
86 | RRIRFRPPRLPRPRPRPFYDPRP | -0.0631
87 | RRIRNRPPRLPRPRPRPVFGPRP | 0.106
88 | RRIRLRPPRLPRPRPRPMYKPRP | -0.44
89 | RRIRDRPPRLPRPRPRPTRQPRP | 0.228
90 | RRIRARPPRLPRPRPRPKECPRP | 0.0495
91 | RRIRGRPPRLPRPRPRPVGFPRP | 0.984
92 | RRIRYRPPRLPRPRPRPQATPRP | -0.108
93 | RRIRRRPPRLPRPRPRPFGYPRP | -0.018
94 | RRIRPRPPRLPRPRPRPESWPRP | 1.54
95 | RRIRERPPRLPRPRPRPSMFPRP | -0.723
96 | RRIRVRPPRLPRPRPRPFQVPRP | -0.0887
97 | RRIRARPPRLPRPRPRPVCSPRP | 0.665
98 | RRIRMRPPRLPRPRPRPVSKPRP | 0.0965
99 | RRIRERPPRLPRPRPRPSDEPRP | -0.228
100 | RRIRWRPPRLPRPRPRPFIDPRP | -0.046

Row | Sequence | shrunken log2 fold change
101 | RRIRSRPPRLPRPRPRPHKYPRP | -0.377
102 | RRIRARPPRLPRPRPRPCVMPRP | -0.0813
103 | RRIRGRPPRLPRPRPRPIEIPRP | -0.0543
104 | RRIRYRPPRLPRPRPRPPRFPRP | 0.0549
105 | RRIRARPPRLPRPRPRPFQTPRP | -0.0176
106 | RRIRYRPPRLPRPRPRPHQGPRP | -0.142
107 | RRIRNRPPRLPRPRPRPKLDPRP | 0.00863
108 | RRIRTRPPRLPRPRPRPGPYPRP | -0.159
109 | RRIRMRPPRLPRPRPRPKTGPRP | 0.895
110 | RRIRQRPPRLPRPRPRPTHEPRP | 0.881
111 | RRIRKRPPRLPRPRPRPSKQPRP | 0.292
112 | RRIRPRPPRLPRPRPRPKNHPRP | -0.282
113 | RRIRVRPPRLPRPRPRPWISPRP | -0.0628
114 | RRIRQRPPRLPRPRPRPDVIPRP | -0.011
115 | RRIRCRPPRLPRPRPRPCYFPRP | -0.779
116 | RRIRLRPPRLPRPRPRPTYVPRP | -0.591
117 | RRIRDRPPRLPRPRPRPVYFPRP | -0.447
118 | RRIRLRPPRLPRPRPRPTYKPRP | -0.244
119 | RRIRWRPPRLPRPRPRPAMQPRP | 0.298
120 | RRIRGRPPRLPRPRPRPEEPPRP | 0.106
121 | RRIRMRPPRLPRPRPRPMTEPRP | 0.12
122 | RRIRERPPRLPRPRPRPDILPRP | 0.0234
123 | RRIRTRPPRLPRPRPRPPTCPRP | 0.174
124 | RRIRFRPPRLPRPRPRPLTGPRP | -0.196
125 | RRIRPRPPRLPRPRPRPRVVPRP | 0.341
